B1: CPEB3 Ribozyme (parent)
chain: GGGGGCCACAGCAGAAGCGUUCACGUCGCGGCCCCUGUCAGAUUCUGGUGAAUCUGCGAAUUCUGCUGU

Variants of: B1
Assay: self-cleavage, relative activity (ratio to wild type); higher = more cleavage; co-transcriptional

In order of falling self-cleavage:
1. C9U U69G  1.07
2. C9U A10C  1.06
3. C9U G47A  1.06
4. A10C A51G  1.06
5. C9G U67G  1.05
6. C9G U69G  1.05
7. C9U C66U  1.05
8. C9U G68A  1.05
9. C9G U69A  1.04
10. C9U A10G  1.04
11. C9U U46G  1.04
12. C9U U64A  1.04
13. C9G U46A  1.03
14. C9U A40G  1.03
15. C9U A42C  1.03
16. C9U A51C  1.03
17. C9U G48A  1.03
18. C9U G48U  1.03
19. C9U U69A  1.03
20. C9G U36C  1.02
21. C9G U43A  1.02
22. C9U A51G  1.02
23. C9U C32A  1.02
24. C9U G50C  1.02
25. C9U G58C  1.02
26. C9U G68U  1.02
27. C9U U38C  1.02
28. C9U U43C  1.02
29. C9U U44A  1.02
30. C9U U46C  1.02
31. C9U U55C  1.02
32. C9U U67C  1.02
33. A10C A51U  1.02
34. C9G U61A  1.01
35. C9U A23G  1.01
36. C9U A23U  1.01
37. C9U A52C  1.01
38. C9U C34A  1.01
39. C9U C34G  1.01
40. C9U C45A  1.01
41. C9U C45U  1.01
42. C9U U49C  1.01
43. C9U U67A  1.01
44. C9U U67G  1.01
45. A10C  1.01
46. C9U G31A  1
47. C9U G50U  1
48. C9U U61A  1
49. C9U U21C  0.999
50. C9U U26C  0.999
51. C9U U64C  0.999
52. C9U A42U  0.997
53. C9U U44C  0.997
54. C9G U43C  0.996
55. C9U A52U  0.996
56. C9U C33U  0.996
57. C9U C33A  0.994
58. C9U C54G  0.994
59. C9U G56A  0.992
60. C9U U49A  0.99
61. C9U A15C  0.989
62. C9G U38A  0.988
63. A10C A52G  0.988
64. C9U A10U  0.987
65. C9U U62G  0.987
66. C9U A59G  0.986
67. C9U U61G  0.985
68. C9U U53G  0.984
69. C9U A60G  0.983
70. A10C A23U  0.983
71. C9U A23C  0.982
72. C9U C35U  0.982
73. C9U C63U  0.982
74. C9U U64G  0.981
75. C9U C54A  0.978
76. A10C A51C  0.978
77. C9G U62A  0.977
78. C9U G31U  0.977
79. C9G U67C  0.976
80. C9U G11A  0.971
81. C9U U43A  0.971
82. C9U C63A  0.968
83. C9U C66A  0.968
84. A10C A16G  0.967
85. C9U A13U  0.966
86. C9G U26C  0.964
87. C9U U46A  0.964
88. C9U C39G  0.962
89. C9G U53G  0.961
90. C9U U53A  0.961
91. C9G U62C  0.96
92. C9U A42G  0.96
93. C9U G56C  0.959
94. C9U U49G  0.957
95. C9G U44A  0.956
96. C9G U53C  0.956
97. C9G U43G  0.955
98. C9G U44C  0.954
99. C9U U55G  0.953
100. A10C A15G  0.947
101. C9G U21C  0.943
102. A10C A23C  0.938
103. C9U U55A  0.932
104. C9U U38A  0.931
105. C9G U26G  0.93
106. C9U C18U  0.927
107. C9U G11C  0.927
108. C9U A13C  0.925
109. C9U C29G  0.923
110. C9U G41A  0.923
111. C9U C29A  0.922
112. A10C A42U  0.921
113. C9U A40U  0.915
114. C9G U26A  0.912
115. C9U C39A  0.912
116. A10C A13G  0.911
117. C9U C27A  0.891
118. C9U C24U  0.888
119. C9G U64A  0.884
120. C9U C63G  0.88
121. C9U G14A  0.878
122. C9G U55C  0.877
123. A10C A40U  0.867
124. C9G U55G  0.865
125. C9G U64C  0.864
126. C9U G19U  0.855
127. C9G U62G  0.849
128. C9U G65U  0.845
129. C9U C32G  0.838
130. C9U G30U  0.837
131. C9G U61C  0.83
132. C9U C24A  0.827
133. A10C A59U  0.82
134. A10C A16U  0.818
135. C9U G17A  0.817
136. C9U G65C  0.802
137. C9U C27U  0.788
138. A10C A15C  0.771
139. A10C A15U  0.77
140. C9U C35G  0.76
141. C9G U21G  0.696
142. A10C A13C  0.638
143. C9U C24G  0.535
144. C9U A16C  0.531
145. A10C A13U  0.484
146. C9U C22U  0.403
147. C9U C57U  0.38
148. C9U G31C  0.38
149. A10C A40C  0.378
150. C9U G37A  0.364
151. C9U C18A  0.355
152. C9G U38G  0.343
153. C9U C35A  0.342
154. C9U C57A  0.32
155. C9U U38G  0.306
156. C9U A60C  0.303
157. C9U C18G  0.283
158. A10C A16C  0.252
159. C9U G19A  0.249
160. C9G U36G  0.245
161. C9U G28A  0.227
162. C9U U36G  0.214
163. C9U G25U  0.192
164. C9U U20C  0.186
165. C9U G28C  0.173
166. C9U U20A  0.148
167. C9U G25C  0.146

From the RNAGym collection of RNA variant scans (doi:10.7554/elife.80360)
